Reference: IntAct's records for PubMed 18056643

B1: Tyrosine-protein phosphatase non-receptor type 22 (Homo sapiens), Q9Y2R2 (parent)
chain: MDQREILQKFLDEAQSKKITKEEFANEFLKLKRQSTKYKADKTYPTTVAEKPKNIKKNRYKDILPYDYSRVELSLITSDEDSSYINANFIKGVYGPKAYIATQGPLSTTLLDFWRMIWEYSVLIIVMACMEYEMGKKKCERYWAEPGEMQLEFGPFSVSCEAEKRKSDYIIRTLKVKFNSETRTIYQFHYKNWPDHDVPSSIDPILELIWDVRCYQEDDSVPICIHCSAGCGRTGVICAIDYTWMLLKDGIIPENFSVFSLIREMRTQRPSLVQTQEQYELVYNAVLELFKRQMDVIRDKHSGTESQAKHCIPEKNHTLQADSYSPNLPKSTTKAAKMMNQQRTKMEIKESSSFDFRTSEISAKEELVLHPAKSSTSFDFLELNYSFDKNADTTMKWQTKAFPIVGEPLQKHQSLDLGSLLFEGCSNSKPVNAAGRYFNSKVPITRTKSTPFELIQQRETKEVDSKENFSYLESQPHDSCFVEMQAQKVMHVSSAELNYSLPYDSKHQIRNASNVKHHDSSALGVYSYIPLVENPYFSSWPPSGTSSKMSLDLPEKQDGTVFPSSLLPTSSTSLFSYYNSHDSLSLNSPTNISSLLNQESAVLATAPRIDDEIPPPLPVRTPESFIVVEEAGEFSPNVPKSLSSAVKVKIGTSLEWGGTSEPKKFDDSVILRPSKSVKLRSPKSELHQDRSSPPPPLPERTLESFFLADEDCMQAQSIETYSTSYPDTMENSTSSKQTLKTPGKSFTRSKSLKILRNMKKSICNSCPPNKPAESVQSNNSSSFLNFGFANRFSKPKGPRNPPPTWNI

Variants of: B1
Details: with kpcd_human PRKCD

Row | effect of a mutation on the interaction | Variant
1 | decreasing interaction | S35E
